In the supplement of paper PMC10567573:

B1: ACSBG2 (parent)
chain: TPMTIPEFFRESVNRFGTYPALAS

Variants of: B1
Assay: protein stability index of a GFP-peptide fusion (GPS, HEK-293T) (PSI 1-6); higher = more stable
Settings: c terminus: a fixed tail appended
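Note: lentivirally expressed fusions sorted by FACS into six bins by GFP to DsRed ratio, PSI derived from sequencing read proportions per bin multiplied by bin number.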

Variant	protein stability index
TPMTIPEFFRESVNRFGTYHALAS	1.92
TPMTIPEFFRESVNRFGTYEALAS	2.4
TPMTIPEFFRESVNRFGTYQALAS	1.71
TPMTIPEFFRESVNRFGTYLALAS	2.63
TPMTIPEFFRESVNRFGTYKALAS	2.39
TPMTIPEFFRESVNRFGTYYALAS	1.56
TPMTIPEFFRESVNRFGTYMALAS	2.87
TPMTIPEFFRESVNRFGTYCALAS	1.97
TPMTIPEFFRESVNRFGTYNALAS	2.11
TPMTIPEFFRESVNRFGTYWALAS	2.11
TPMTIPEFFRESVNRFGTYRALAS	2.18
TPMTIPEFFRESVNRFGTYIALAS	2.34
TPMTIPEFFRESVNRFGTYGALAS	2.3
TPMTIPEFFRESVNRFGTYDALAS	2.67
TPMTIPEFFRESVNRFGTYSALAS	2.04
TPMTIPEFFRESVNRFGTYVALAS	2.41
TPMTIPEFFRESVNRFGTYFALAS	2.49
TPMTIPEFFRESVNRFGTYTALAS	1.48
TPMTIPEFFRESVNRFGTYAALAS	1.89
TPMTIPEFFRESVNRFGTYPELAS	2.69
TPMTIPEFFRESVNRFGTYPILAS	2.23
TPMTIPEFFRESVNRFGTYPWLAS	2.53
TPMTIPEFFRESVNRFGTYPPLAS	2.32
TPMTIPEFFRESVNRFGTYPDLAS	2.84

Variant	protein stability index
TPMTIPEFFRESVNRFGTYPRLAS	2.16
TPMTIPEFFRESVNRFGTYPSLAS	2.31
TPMTIPEFFRESVNRFGTYPLLAS	1.77
TPMTIPEFFRESVNRFGTYPKLAS	2.87
TPMTIPEFFRESVNRFGTYPFLAS	1.65
TPMTIPEFFRESVNRFGTYPTLAS	2.02
TPMTIPEFFRESVNRFGTYPMLAS	2.26
TPMTIPEFFRESVNRFGTYPYLAS	2.17
TPMTIPEFFRESVNRFGTYPQLAS	2.5
TPMTIPEFFRESVNRFGTYPCLAS	1.88
TPMTIPEFFRESVNRFGTYPGLAS	2.47
TPMTIPEFFRESVNRFGTYPHLAS	2.32
TPMTIPEFFRESVNRFGTYPVLAS	1.78
TPMTIPEFFRESVNRFGTYPNLAS	2.19
TPMTIPEFFRESVNRFGTYPALWS	2.55
TPMTIPEFFRESVNRFGTYPALGS	2.2
TPMTIPEFFRESVNRFGTYPALNS	2.5
TPMTIPEFFRESVNRFGTYPALIS	2.37
TPMTIPEFFRESVNRFGTYPALYS	1.82
TPMTIPEFFRESVNRFGTYPALQS	2.69
TPMTIPEFFRESVNRFGTYPALCS	1.77
TPMTIPEFFRESVNRFGTYPALDS	2.88
TPMTIPEFFRESVNRFGTYPALRS	2.56
TPMTIPEFFRESVNRFGTYPALKS	2.71

Variant	protein stability index
TPMTIPEFFRESVNRFGTYPALES	2.61
TPMTIPEFFRESVNRFGTYPALPS	2.2
TPMTIPEFFRESVNRFGTYPALMS	1.97
TPMTIPEFFRESVNRFGTYPALTS	2.33
TPMTIPEFFRESVNRFGTYPALHS	2.43
TPMTIPEFFRESVNRFGTYPALSS	2.56
TPMTIPEFFRESVNRFGTYPALLS	2.19
TPMTIPEFFRESVNRFGTYPALFS	1.67
TPMTIPEFFRESVNRFGTYPALVS	1.66
TPMTIPEFFRESVNRFGTYPALAI	1.48
TPMTIPEFFRESVNRFGTYPALAP	2.52
TPMTIPEFFRESVNRFGTYPALAM	2.67
TPMTIPEFFRESVNRFGTYPALAY	1.76
TPMTIPEFFRESVNRFGTYPALAT	2.07
TPMTIPEFFRESVNRFGTYPALAC	2.03
TPMTIPEFFRESVNRFGTYPALAD	2.87
TPMTIPEFFRESVNRFGTYPALAE	2.83
TPMTIPEFFRESVNRFGTYPALAG	2.18
TPMTIPEFFRESVNRFGTYPALAH	1.93
TPMTIPEFFRESVNRFGTYPALAN	2.64
TPMTIPEFFRESVNRFGTYPALAL	2.04
TPMTIPEFFRESVNRFGTYPALAV	1.37
TPMTIPEFFRESVNRFGTYPALAW	1.66
TPMTIPEFFRESVNRFGTYPALAF	1.58

Variant	protein stability index
TPMTIPEFFRESVNRFGTYPALAR	2.96
TPMTIPEFFRESVNRFGTYPALAK	2.45
TPMTIPEFFRESVNRFGTYPALAA	2.06
TPMTIPEFFRESVNRFGTYPALAQ	2.08
TPMTIPEFFRESVNRFGTYPASAS	3.04
TPMTIPEFFRESVNRFGTYPAGAS	3
TPMTIPEFFRESVNRFGTYPAHAS	2.61
TPMTIPEFFRESVNRFGTYPAWAS	2.57
TPMTIPEFFRESVNRFGTYPAPAS	2.63
TPMTIPEFFRESVNRFGTYPAKAS	3.08
TPMTIPEFFRESVNRFGTYPAEAS	3.37
TPMTIPEFFRESVNRFGTYPAFAS	2.63
TPMTIPEFFRESVNRFGTYPAAAS	2.51
TPMTIPEFFRESVNRFGTYPAVAS	2.02
TPMTIPEFFRESVNRFGTYPACAS	2.54
TPMTIPEFFRESVNRFGTYPAIAS	2.34
TPMTIPEFFRESVNRFGTYPATAS	2.88
TPMTIPEFFRESVNRFGTYPAMAS	1.88
TPMTIPEFFRESVNRFGTYPAQAS	2.5
TPMTIPEFFRESVNRFGTYPADAS	3.19
TPMTIPEFFRESVNRFGTYPANAS	3.45
TPMTIPEFFRESVNRFGTYPAYAS	1.93
TPMTIPEFFRESVNRFGTYPARAS	3.12
TPMTIPEFFRESVNRFGTNPALAS	2.84

Variant	protein stability index
TPMTIPEFFRESVNRFGTMPALAS	2.77
TPMTIPEFFRESVNRFGTSPALAS	2.54
TPMTIPEFFRESVNRFGTLPALAS	2.38
TPMTIPEFFRESVNRFGTIPALAS	2.78
TPMTIPEFFRESVNRFGTFPALAS	2.52
TPMTIPEFFRESVNRFGTRPALAS	3.17
TPMTIPEFFRESVNRFGTTPALAS	2.76
TPMTIPEFFRESVNRFGTKPALAS	2.8
TPMTIPEFFRESVNRFGTQPALAS	2.91
TPMTIPEFFRESVNRFGTEPALAS	3.37
TPMTIPEFFRESVNRFGTDPALAS	3.44
TPMTIPEFFRESVNRFGTCPALAS	2.19
TPMTIPEFFRESVNRFGTPPALAS	2.87
TPMTIPEFFRESVNRFGTHPALAS	2.77
TPMTIPEFFRESVNRFGTWPALAS	2.38
TPMTIPEFFRESVNRFGTAPALAS	2.82
TPMTIPEFFRESVNRFGTGPALAS	2.73
TPMTIPEFFRESVNRFGTVPALAS	2.71
TPMTIPEFFRESVNRFGRYPALAS	2.17
TPMTIPEFFRESVNRFGVYPALAS	2.29
TPMTIPEFFRESVNRFGSYPALAS	2.06
TPMTIPEFFRESVNRFGWYPALAS	1.49
TPMTIPEFFRESVNRFGYYPALAS	2.09
